The data set deals with the molecule itself. Description: cross-linking + co-IP; AB5075-pMMB-oxa23 cells cross-linked with BDP-NHP, lysates denatured with SDS, anti-HA agarose IP; immunoblots with anti-HA, anti-OmpA, streptavidin; DMSO-treated control. On the technique in general: A western blot detects proteins with antibodies after separation by electrophoresis.

Several values for one entry are separate records, joined by “and”; a condition that tells them apart may be missing. Identical values can stand only once.

B1: Oxa23-HA-Strep (enzyme)
chain: CTVQHNLINETPSQIVQGHNQVIHQYFDEKNTSGVLVIQTDKKINLYGNALSRANTEYVPASTFKMLNALIGLENQKTDINEIFKWKGEKRSFTAWEKDMTLGEAMKLSAVPVYQELARRIGLDLMQKEVKRIGFGNAEIGQQVDNFWLVGPLKVTPIQEVEFVSQLAHTQLPFSEKVQANVKNMLLLEESNGYKIFGKTGWAMDIKPQVGWLTGWVEQPDGKIVAFALNMEMRSEMPASIRNELLMKSLKQLNII
notes: Oxa-23 of Acinetobacter baumannii AB5075; oxa-23 gene with the TAA stop codon omitted so that the HA-Strep tag of the pMMB vector follows; I take the same for this construct and that the signal peptide is cut on export; also called Oxa-23 with C-terminal HA-Strep tags; tagged Oxa-23; source: A. baumannii AB5075 WT cells transformed with pMMB-oxa23-HA-Strep (AB5075-pMMB-oxa23), in lysate; not …
As usually defined, the stoichiometry N is the number of molecules, sites or subunits per partner or assembly. For the protein B1, the “stoichiometry N” value is 2 and 4.

The values are drawn from PMC5114622, “In vivo protein interaction network analysis reveals porin-localized antibiotic inactivation in Acinetobacter baumannii strain AB5075” (Nature Communications, 2016).
